Assay results: the nanobody polyreactivity screen of Harvey et al. (2022)

Assay: yeast display, Sf9 membrane polyspecificity reagent, FACS + sequencing; frameworks hold sequencing errors
Method in brief: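 Genes from sorted yeast were amplified by colony PCR, read by MiSeq 2 × 250 sequencing and filtered on CDR length. These cells carried a synthetic nanobody library in Saccharomyces cerevisiae BJ5465 and were sorted by FACS into low and high (top ~1%) gates on anti-HA and streptavidin fluorescence. Polyreactivity is labelled according to the gate of origin.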

Sequence	polyreactivity (PSR sort gate)
QVQLVESGGGLVQAGGSLRLSCAASGSIFNGYDMGWYRQAPGKERELVAAISLSGDSTYYADSVKGRFTISRDYAKKTVYLQMNSLKPEDTAVYYCAAADYFRSYWGQGTQVTVSS	low polyreactivity
QVRLLETGGGLVQAGGSLRLSCAPSGSTFTDYDMGWYRPAPGKERELVAAITSGGSTNYADSVKGSFTISRDNAKNTVYLQMNRLKPEDTAVYYCAASYWDTEPGYREYDYWGQGTLVTVSS	low polyreactivity
QVQLVESGGGLVQAGGSLRLSCAASGRIFPAYVMGWYRQAPGKERELVATIDNGGGTYYADSVKGRFTISRDNAKNTVYLQMNSLKPEDPAVYYCARDRHVRWGLKMDYWGQGTQVTVSS	low polyreactivity
QVQLVESGRGLVQAGGSLRLSCAASAVSFISYAMGWYRQAPGKERELVAAISRGGSSTYYADSVKGRFTISRDNAKNTVYLQMNSLKPEDTAVYYCNKAYHRRDSEFGYSGQGTQVTVSS	high polyreactivity
QVQIVESGGGLVQAGGSLRLSCAASGSIFITYAMGWYRPAPGKERELVAAIRDSGDRTYYADSVKGRFTISRDNAKNTVYLQMNSLKPEDTAVYYCNARWQEPLKYDYWGQGTQVTVSS	low polyreactivity
QVQLVESGGGLVQAGGSLRLSCAASGSIFPSYAMGWYRQAPGKERELVATIGRGGTTNYADSVKGRFTISRDNAKNTVYLQMNSLKPEDTAVYYCNAERIWRYKYGYDYWGQGTQVTVSS	high polyreactivity
QVQLVESGGGLVQAGGSLRLSCAASGSIFTVYTMGWYRQAPGKVRELVAAINSRGGTTYYADSVKGRFTISRDNAKNTLYLQMNSLKPEDTAVYYCAAKQRPKSYGPGHYYWGQGTQVTVSS	high polyreactivity
QVQLVESGGGLVQAGCSLRLSCAASGRIFYTYAMGWYRQAPAKEREFVAGIRWSGSSTYYADSVMGRFRISRDNAKYTVYFQMLSMKPEDTAVYYCAKRYVWGDKRYWQGYDYWGQGNQVTVSS	high polyreactivity
QVQLVESGGGLVQAGGSLRLSCASSGSIFVLNAMGWYRQAPVKESELVAGITYSGGSTYYADSVKGRFTISRDNAKNTVYLQMNSLKPEDTAVYYWSAPVRRYPYPGRFYYWGQGTQVTVSS	low polyreactivity
QVQLVESGGGLVQAGGSLRLSCAASGGTFSFNAMGWSRQAPGKERELVATISWDGGSTYYADSVKGRFTISRDNAKNTVYLQMYSLKPEDTAVYYCNKYVFDRYIYETEYDYWGQGTQVTVSS	high polyreactivity
QVQLVESGGGLVQAGGSLRLSCAASGRTFWIYAMGWYRQAPGKEREFVAAISSSGGGTYYADSVKGRFTISRDNAKNTVYLQMNSLKPEDTAVYYCAKDLYFSKGYYWGQGTQVTVSS	low polyreactivity
QVQLVESGGGLVQAGGSLRLSCAATGRIFQRNAMGWYRQAPGKERELVAVISKSGGSTYYADSVKGRFTISRDNAKNTVYLQMNSLKPEDTAVYYCATRYFRPGEKYDYWGQGTQVTVSS	low polyreactivity
QVQLVESRGGLVQAGGSLRLSCAASGNTFQPYAMGWYRQAPGKERELVAAITWSGDTTYYADSVKARFTISRDNAKNTVYLQMNSLKPEDTAVYYCYPYFWYPDGYTYDYWGQGTQVTVSS	high polyreactivity
QVQLVESGGGLVQAGGSLRLSCAASGSIFPGNAMGWYRQAPGKERELVAAIRGGGSTNYADSVKGRFTISRDNAKNTVYLQMNSLKPEDTAVYYCNADPFTGYDYWGQGTQVTVSS	low polyreactivity
QVQLVESCGGLVQAGGSLRLSCAASGSTFVHNAMGWNRQAPGKESELVAAITSRTGITYYADSLKGRFTISRDNAKNTFYLEMNSLKPEDTSVFYCAKRHVRTHRLQFDYWGQGTQVTVSS	high polyreactivity
QVQLVDSGGGLVQAGGILRLSCAASGFIFKKNAMGWYRQAHGKEREFVAAITSSGGSTYYADSVKGRFTISRDNAKNTVYLQMNSLKPEDTAVYFCARGTSWWRSRSITFTYDYWGQGTQVTVSS	high polyreactivity
QVQLVESGGVLVQAGGSLRLSCAAYGSNFVRNGMGWYRQAPGKEREFVASITSGTITYYADSVKGRFTISRDNAKNTVYLQMNSLKPEDTAVYYCNAGCRSSRFKRPYFRERNYWGQGTQLTVSS	high polyreactivity
QVQLVESGGGLVQAGGSLRLSCAASGFTFGGYAMGWYRQAPGKESEFVAAITGTGGNTFYADSVKGRFTISRDNAKNTVYLQMNSLKPEDTAVYYCAKTWYPWSRYGYYRRYDSWGQGTQVTVSS	low polyreactivity
QVQLLESGGGLVQAGGSLRLSCAPSGFTFLYYAMGWYIQAPGKERELVAVISRSGGRTYYADSVKGRFTISRDNAKNTVYLLMNSLKPEDTAVYYCAAALGVALNDYWGQGTQVNVSS	high polyreactivity
QVQLEESGGGLVQAGGSLRLSCAASVSIFESYAKGWNRQAPGKEREFVAAISDSGADTYYADSVKGRFTISRDNAKNTVYLQMNCLKPEDTAVYYCATDDYFSSYGYFLDGYWGQGTQVTVSS	low polyreactivity
QVQLVESGGGLVQAGGSLRLSCAASGVIFDFNAMGWYRQAPGKERELAASISRSGGSTYYADSVKGRFTISRDNAKNTVYLQMNSLKPEDTAVYYCAKASKGQYRFDYWGQGTQVTVSS	low polyreactivity
QLQLVESGGGLVQAGGSLRLSCAASGIIFDGYSRGWYRQAPGKEREFVAAITSGGGSTSYADSVKGRFTISRDYAKNTVYLQMNSLKPEDTAVYYCAARSNRFYVRQRYGYWGQGTQVTVSS	high polyreactivity

Sequence	polyreactivity (PSR sort gate)
QVQLVESGGGLVQAGGSLRLSCAASGSIFVHYAMGWYRQAPGKERELVARISWRGNTYYADSVKGRFTISRDNAKNTVYLQMNSLKPEDTAVYYCAKDVRRSLVIWDVVYPHGYWGQGTQVTVSS	low polyreactivity
QVQLVESGGGLVLAGGSLRLSCAASGRIFTSARGWYRQAPGKERELVAAISSSGGRTYYADSVKGRFTISRDNAKNTVYLQMNSLKPEDTAVYYCNTRPGSVFRAGGDYWGQGTQVTVSS	high polyreactivity
QVQLVESGGGLVQAGGSLRLSCAASGSIFPGYALGWYRQAPGKERELVATIRWSSGSRTNYADSVKGRFTISRENAKKTVYLQMNSLKPEDSAVYYCAAGSRRYKYDYWGQGTQVTVSS	high polyreactivity
QVQLVESGGGLVQAGGSLRLSCAASGRTFSVYTMGWYRQAPGKERELVASINWSGGRTYYADSVKGRFTISRDNAKYSVYFQMISLKPEDTAVYYCAATGWRTLFDYWGQGTQVTVSS	high polyreactivity
QVQLVESGGGLVQAGGSLRLSCAASGFIFDWNTMGWYRQAPGKERELVAAITESSGSTYYADSVKGRFTISRDNAKNTVYLQMNSLKPEDTAVYYCAAELDVYVSIGSRFHFDYWGQGTQVTVSS	low polyreactivity
QVQLVESGGGLVQAGGILRLSCDASGRIFYTYAMGWYRHGPGQERELVAAISRSGTSTYYADSLKGRFTIARDNEKNHVYLQMNSLKPEDTAVYYCAIYKRLPDYGYWGQGTLVTVSS	high polyreactivity
QVQLVESGGGLVQAGGSLRLSCAASGFILGGYAMGWYRQAPGKERELVAAISWSSGSTYYADSVKGRFTISRDNAKNTVYLQMNSLKPEDTAVYYCAAVGAYDYWGQGTQVSVSS	low polyreactivity
QVQLVESGGGLVQAGGSLRLSCAASGRIFDGYDMGWYRQAPGKERELVAAITSVGSTNYADSVKGRFTISRDNAKNTVYLQMNSLKPEDSAVYYCAAVLYVFYDEYGYWEYFSQYDYWGQGTQVTVSS	low polyreactivity
QVQLVESGGGLVQAGGSLRLSCAASGRIFYFYALGWYRQAPGKERDLVAAINIGGSTNYADSVKGRFTISRDNAKNTVYLQMNSLNPEDTAVYYCNAEAYSRSDYYRYDYWGQGTQVTVSS	low polyreactivity
QVQLVESGGGLVQAGGSLRLSCAASGFTLFGYAMGWYRQAPGKERELVAAISKDGGSTYYADSVKGRFTISRDNAKNTVYLQMNSLKPEDTAVYSCAARVKRPQTGYDRRYGYWGQGTQVTVSS	high polyreactivity
QVQLVESGGGLVQAGGSLRLSCAASGSTFSFNDMGGYRPAPGKERELVADISWSGDTTYADSVKGRFTISRDNAKNTVYLQMNSLIPEDSAVYYCNAEGFSISFYGNWVVQWEFDYWGQGTQVTVSS	high polyreactivity
QVKLVESGGGLVQAGGRLRLSCDAYGIILVGYDMGWYRPAPGKERELVATISSGSSTYYEDSVKGRFTISRDNAKNTVYLQMNSLKPEDTAVYYCNADHAGPYWRFHDDDYWGQGTKVTVSS	low polyreactivity
QVQLVESGGGLVQAGGSLRLSCAASGSIFVGYAMGWYRQAPGKERELVAAISRSGGRTYYADSVKGRFTISRDNAKNTVYLQMISLKPEDTAVYYCARQRYEYRTTYYYWGQGTQVTVSS	high polyreactivity
QVQLVESGGGLVQAGGSLRLSCAASGFISGGNAMGWYRQAPGKEREFVAAIDNTGSTYYADSVKGRFTISRDNAKNTVYLQMNSLKPEDTAVYYCNAEVSEDYVDNDYWGQGTQVTVSS	low polyreactivity
QVQLVESGGGLVQAGGSLRLSCAASGIIFYGYAMGRYRQAPGKERELVAAITSSGRTYYADSVKGRFTISRDNAKNTVYLQMNSLKPEDTAVYFCNVLLQRVYGTAPSFDYWGQGTQVTVSS	high polyreactivity
QVQLVESGGGLVQAGGSLRLSCAASGSTFDVYDMGWYRQAPGKERELVASISWDGDRTYYADSVKGRFTISRDNAKNTVYLQMNSLKPEDTAVYYCAVDSASDTIYDYWGQGTQVTVSS	low polyreactivity
QVQLVESGGGLVQAGGSLRLSCAASGIIYHFNDMGWYRQAPGQERELVASIDSTGSTNYADSVKGRFTLSRDNAKNTVYLQMNSLKPEDTAVYYCAVLNHRVDSVLTRYYYWGQGTQVTVSS	low polyreactivity
QVQLVESGGGLVQAGGSLRLSCAPSGRIFRYNAMGWYRQAPGKERELVAAITSGGSTNYADSVKGRFTISRDNAKNTVYLQMNRLKPEDTAVYYCAVTGYRPYAYRRRYPYDYWGQGTQVTVSS	high polyreactivity
QVQLVESGGGLVQAGGSLRLSCAASGSTFLPNDMGWYRQAPGKERELVAAISWSDGSTYYADSVKGRFTISRDNAKNTVYLQMNSLKPEDTAVYYCNTVGFDYYYYEYDYWGQGTQVTVSS	low polyreactivity
QVQLVESVGGLVQAGGSLRLSCAASGRTFSEYAMGWYRQAPGEERELVAAITSTGGITYYADSVKGRFTISRDNAKNTVYLQMNSLKPEDTAVYYCAARAYTWGPAGQVDKYYYWGQGTQVTVSS	high polyreactivity
QVQLVESGGGLVQAGGSLRLSCAASGSTFAYYVMGWYRQAPGKERELVAAISRGGRTYYADSVKGRFTISRDNAKNTVYLQMNSLKPEDTAVYYCAKPYHQRSAKVDYWGQGTQVTVSS	low polyreactivity
